Test results from US6780603.

Target: α2β1 integrin receptor of human mesangial cells (human) (UniProt P05556)
Test: cell-based or functional assay

Substance “P1H5 anti-α2 integrin monoclonal antibody” has an inhibition of adhesion of human mesangial cells grown in 5 mM glucose to cIV (percent of binding in the presence of W6/32) of 60% and an inhibition of adhesion of human mesangial cells grown in 25 mM glucose to cIV (percent of binding in the presence of W6/32) of 75%.
